Reference: patent US10502741B2, “Means and methods for detecting activated MALT1” (Helmholtz Zentrum München Deutsches Forschungszentrum für …, priority 2014, dated 2019)

What was measured:
active MALT1 [1] = molecular target: T1, active MALT1 (Homo sapiens, UniProt Q9UDY8); assay: ELISA-based assay (MALT1 ELASA) on streptavidin-coated plates with MALT1 antibody detection; type: cell-based; conditions: inhibitor-treated (10 μM) DLBCL cells, probe 7
T1 construct: endogenous in cells; host or cells: Jurkat T cells, primary human PBMCs and T cells, DLBCL cell lines (HBL1, TMD8, OCI-Ly3, OCI-Ly10, U2932, RIVA, BJAB, Su-DHL-4, Su-DHL-6)
T1 sequence (Q9UDY8 1-824): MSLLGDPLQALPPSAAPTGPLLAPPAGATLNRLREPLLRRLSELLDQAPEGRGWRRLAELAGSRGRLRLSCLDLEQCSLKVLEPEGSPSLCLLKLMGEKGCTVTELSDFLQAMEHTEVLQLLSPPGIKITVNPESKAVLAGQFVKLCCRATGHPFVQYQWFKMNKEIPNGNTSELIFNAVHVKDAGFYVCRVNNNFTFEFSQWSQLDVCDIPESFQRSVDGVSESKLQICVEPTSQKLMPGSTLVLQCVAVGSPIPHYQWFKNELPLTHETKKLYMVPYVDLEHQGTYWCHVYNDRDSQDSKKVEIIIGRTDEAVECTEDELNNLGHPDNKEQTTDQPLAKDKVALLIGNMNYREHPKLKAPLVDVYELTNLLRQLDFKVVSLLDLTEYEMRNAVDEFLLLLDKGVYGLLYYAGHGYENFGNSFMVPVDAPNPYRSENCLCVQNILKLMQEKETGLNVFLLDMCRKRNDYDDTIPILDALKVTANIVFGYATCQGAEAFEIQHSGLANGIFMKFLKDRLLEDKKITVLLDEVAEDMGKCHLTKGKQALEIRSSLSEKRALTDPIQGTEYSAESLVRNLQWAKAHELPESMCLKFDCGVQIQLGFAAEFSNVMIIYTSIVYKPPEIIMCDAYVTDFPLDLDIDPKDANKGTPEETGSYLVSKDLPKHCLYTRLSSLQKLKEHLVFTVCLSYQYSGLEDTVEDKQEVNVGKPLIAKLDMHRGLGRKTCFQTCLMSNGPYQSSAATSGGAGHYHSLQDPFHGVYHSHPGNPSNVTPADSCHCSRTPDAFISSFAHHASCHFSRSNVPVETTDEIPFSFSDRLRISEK
Procedure: Jurkat T cells were cultured in standard RPMI medium containing 10% FCS, 100 U/ml Penicillin/Streptomycin and 2 mM Glutamin. DNA transfection of 6 μg DNA in 8×10^6 Jurkat T cells was performed by electroporation in a GenePulser Xcell (BioRad) with a 220 Volt pulse. For siRNA experiments, Jurkat T cells were transfected with 100 nM siRNA and Atufect transfection reagent (Silence Therapeutics, Berlin). Jurkat T cells were stimulated either with 200 ng/ml PMA (phorbol 12-myristate 13-acetate) and 300 ng/ml Ionomycin (both Calbiochem) or CD3/CD28 antibody co-ligation (human CD3: 1 μg/ml; human CD28: 4 μg/ml; mouse IgG1: 2 μg/ml; mouse IgG2a: 2 μg/ml; BD Biosciences). DLBCL cell lines (HBL1, TMD8, OCI-Ly3, U2932, RIVA, BJAB, Su-DHL-4 and Su-DHL-6) were cultured in standard RPMI medium containing 20% FCS, 100 U/ml Penicillin/Streptomycin and 2 mM Glutamin. OCI-Ly10 cell line was cultured in IMDM containing 20% human serum, 100 U/ml Penicillin/Streptomycin, 2 U/ml heparine, 50 μM β-mercaptoethanol. Inhibitors 10 μM (z-VRPR-FMK, Mepazine, Thioridazine, CA-074Me) were added to the cells in media for 1 h, prior to stimulation and labeling with diagnostic MALT1 inhibitor.
Untreated DLBCL (1×10^7), primary T cells (0.25×10^7) or Jurkat T cells (0.2-1×10^7) (stimulated or not) were lysed in 300 μl co-IP buffer without protease inhibitors, centrifuged, incubated with probe 7 (concentration as depicted) for 1 h at RT, then transferred to streptavidin-coated plates (96 well, clear) and incubated o/n at 4° C. After blocking with 2% BSA in PBS-T, detection was performed by incubation with MALT1 primary antibody (1 h, RT) and HRP-coupled secondary antibody (1 h, RT). […] was determined after TMB substrate incubation in a photometer (Bio-Tek).

active MALT1 [2] = molecular target: T1, active MALT1; assay: MALT1 ELASA in cryo-preserved patient DLBCL tumor samples; conditions: 0.25 μM on lysed tumor tissue
Procedure: FIG. 10: A) Active MALT1 detection in cryo-preserved patient tumor samples. Frozen tumor tissue was lysed with a douncer and syringe, incubated with z-VRPR-FMK (0.25 μM) (SEQ ID No. 6) or left untreated before MALT1 activity read-out as above. Relative MALT1 activity from each untreated and z-VRPR-FMK (SEQ ID No. 6) treated samples was measured and directly compared (ABC DLBCL n=8; GCB DLBCL n=7). Significance for MALT1 activity in untreated to z-VRPR-FMK (SEQ ID No. 6) treated samples was calculated by a two-tailed t-test (**<0.005). B) Oncogenic CARMA1 is sufficient to trigger MALT1 activation. BJAB transduced with CARMA1 WT or L244P (ABC derived) or L225PI (GCB derived) were lysed and treated with z-VRPR-FMK (SEQ ID No. 6) and analyzed as above. Results and SD from three independent experiments are shown. MALT1 activity is depicted as arbitrary units [AU].
Untreated DLBCL (1×10^7), primary T cells (0.25×10^7) or Jurkat T cells (0.2-1×10^7) (stimulated or not) were lysed in 300 μl co-IP buffer without protease inhibitors, centrifuged, incubated with probe 7 (concentration as depicted) for 1 h at RT, then transferred to streptavidin-coated plates (96 well, clear) and incubated o/n at 4° C. […] was determined after TMB substrate incubation in a photometer (Bio-Tek). […]

“z-VRPR-FMK (Z N-terminal cap, FMK warhead)” was tested, and the “effect of inhibitor on active MALT1 signal in DLBCL cells” value (active MALT1 [1]) was “strongly reduced”, the “samples with reduction in MALT1 activity, GCB DLBCL” value (active MALT1 [2]; 7 GCB DLBCL biopsies) was “one out of seven” and the “samples with reduction in MALT1 activity, ABC DLBCL” value (active MALT1 [2]; 8 ABC DLBCL biopsies) was “five out of eight”.
